# Experimental data: paper PMC7072583, “Intracellular Delivery of DNA and Protein by a Novel Cell-Permeable Peptide Derived from DOT1L” (Biomolecules, 2020)
# Ends that are not written are not given here. * marks the point of attachment. FITC = O=C1OC2(c3ccc(O)cc3Oc3cc(O)ccc32)c2ccc(NC(=S)*)cc21; Acp = not defined here
# Tests used:
# [1] = tested on: MCF7 cells; assay type: cell-based, human
# Method: (§1) All types of cells were suspended in 0.5 mL media and seeded at a density of 1.5 × 10^5 cells/well on a 24-well plate for 24 h. After washing with PBS twice, the indicated cells were incubated with indicated concentrations of FITC-CPP-Dot1l, FITC-NCO peptides, or purified protein in 0.5 mL serum-free media/well for 1 h. After incubation, cells were rinsed three times in PBS and then imaged by fluorescence microscopy (Nikon, Tokyo, Japan). To evaluate the cellular uptake efficiency of indicated treatment, the cellular uptake of indicated concentration of CPP was quantified with multimode spectrophotometry (Tecan, Mannedorf, Switzerland). The incubation and wash procedure were the same as above. Cells were then lysed with 0.3 mL/well lysing buffer (0.1 M NaOH) for 10 min and centrifuged at 14,000 rpm for 5 min. The fluorescence intensity in the supernatant was read using Multimode spectrophotometry (Tecan, Mannedorf, Switzerland) at 485 nm excitation and emission at 535 nm. Protein concentration of supernatant was examined by the Bradford protein assay kit following the manufacturer’s recommendation. The fluorescence of cellular uptake is expressed as fluorescence intensity per mg of total cellular protein. Experiments indicated in the text were repeated at least three times.
# [2] = tested on: MCF7, B16, HSC-T6, Caski, and HepG2; assay: Cellular uptake of FITC-labeled Dot1l peptide in different cell lines; assay type: cell-based, human, mouse, rat
# Method: as §1
# [3] = tested on: MCF7 and HSC-T6 cells; assay: Comparison of penetration efficiency of different CPPs; assay type: cell-based, human, rat; conditions: Supplementary Figure S2D
# Method: as §1
# [4] = tested on: MCF7 cells; assay: Uptake mechanism: temperature and endocytosis inhibitors; assay type: cell-based, human
# Method: as §1
# The uptake mechanism of Dot1l in MCF7 cells was examined through endocytosis inhibitors. Peptide incubation at indicated different temperatures was measured to investigate the influence of temperature on peptide internalization (physical means of inhibition of endocytosis). […] The uptake efficiency was detected using the same protocol as the one shown above.
# [5] = tested on: HSC-T6 cells; assay: MTT cytotoxicity assay; assay type: cell-based, rat; conditions: HSC-T6, range of peptide concentrations, 24 h and 48 h, n = 3, p > 0.05
# Method: (§2) HSC-T6 and MCF7 cells were seeded at a density of 8000 cells/well in 96-well culture plates overnight before incubation. The cells were washed with PBS and were treated with Dot1l or Dot1l/pDNA complexes of different concentrations at the indicated times. After rinsing with PBS, 20 μL of 5 mg/mL MTT in PBS solution were added to 80 μL of serum-free media and incubated for 4 h. After that, the culture medium was discarded and 150 μL of dimethyl sulfoxide (DMSO) were added into each well to dissolve the formazan crystals. The absorbance of DMSO-dissolved solution was read in a Multiskan Spectrum (Thermo Fisher Scientific, Waltham, MA, USA) reader at 490 nm.
# [6] = tested on: MCF7 cells; assay: MTT cytotoxicity assay; assay type: cell-based, human; conditions: MCF7, range of peptide concentrations, 24 h and 48 h, n = 3, p > 0.05
# Method: as §2
# [7] = tested on: red blood cells (RBC); assay: Hemolysis assay; assay type: cell-based; conditions: 2.5-10 µM, 2 h, absorbance 450 nm, 0.1% Triton X-100 positive control, n = 3, p > 0.05 vs NC
# Method: To examine the membrane integrity, red blood cells (RBC) were used to conduct hemolytic analysis. After separation of RBCs by centrifugation for 10 min at 500 rpm, RBCs were collected and carefully washed with PBS. A 20% v/v RBC suspension was used for further experiments. In a typical experiment, 25 μL of RBC suspension were added to 225 μL peptide dilutions at different concentrations. Following 2 h of incubation, samples were centrifuged (500 rpm, 5 min) to discard cells and the membrane fragment. Supernatant samples (50-μL aliquots) were transferred to a clear 96-well plate and hemoglobin absorbance was read at 450 nm. Experimental design contains negative controls and positive controls (RBCs treated with 0.1% Triton X-100).
# [8] = tested on: HSC-T6 cells; assay: Lactate dehydrogenase leakage assay; assay type: cell-based, rat; conditions: HSC-T6, 2.5-10 µM, 1 h, 0.1% TritonX-100 positive control, n = 3, p > 0.05 vs NC
# Method: (§3) Lactate dehydrogenase (LDH) assay was conducted to measure the release of lactate dehydrogenase from damaged cells. Cells were seeded at a density of 1.5 × 10^5 cells/well to 24-well plates for overnight culture and peptides at indicated concentrations were added as described above. After 1 h incubation, 50 μL of cell-free supernatant were collected and added to each well, including controls and cell-free wells filled with 50 μL of LDH assay buffer. Reaction was conducted at room temperature (RT) for 10 min according to the manufacturer’s recommendations and the Optical Density (OD) was read in a Multiskan Spectrum (Thermo Fisher Scientific) plate reader at 570 nm.
# [9] = tested on: MCF7 cells; assay: Lactate dehydrogenase leakage assay; assay type: cell-based, human; conditions: MCF7, different concentrations, 1 h; Supplementary Figure S4A
# Method: as §3
# [10] = Flow cytometry analysis of cell cycle and cell apoptosis; assay type: cell-based; conditions: 10 μM peptide
# Method: Cells and Dot1l peptide (10 μM), following the same method as described before, were plated with treatment in a six-well plate format. Cells were then harvested and pelleted in washing steps with PBS three times by centrifuging for 5 min at 1023 rpm. The supernatant was removed, and cells were resuspended in PBS. Cells were then fixed in 70% cold ethanol in PBS for 30 min. After washing three times with PBS, the fixed cells were stained with 0.5 mL PI/RNase A solution or with the Annexin-V/PI Apoptosis Detection Kit (Elabscience, Wuhan, China), following the recommended methods. Quantification of cell cycle states or cell apoptosis was acquired by fluorescence of each sample in BD FACSVerse™ flow cytometer.
substance,measurement,setting,value
"FITC-(Acp)-KARKKKLNKKGRKMAGRKRGRPKK ({FITC-Acp}-KARKKKLNKKGRKMAGRKRGRPKK; reading uncertain) [Dot1l, FITC-labeled 24-residue arginine-rich cell-penetrating peptide derived from human Dot1l protein]",Fluorescence signal after trypan blue quenching of cell periphery signal,[1],the fluorescence signal persisted
same,Intracellular fluorescence signal with 5% DMSO pretreatment,[1],highly increased
same,Penetration efficiency with longer incubation time,[1],not promoted
same,Penetration in different cell lines after 5% DMSO pretreatment,"[2]; 5% DMSO pretreatment, Supplementary Figure S1C",significantly increased
same,Penetration in different cell lines,"[2]; MCF7, B16, HSC-T6, Caski, HepG2, non-DMSO pretreatment condition",could penetrate into all different cell lines efficiently without apparent cell line specificity
same,Penetration efficiency compared with other CPPs,[3],"weaker than hPP10, but significantly higher than that of TAT and MT23"
same,Internalization with wartmannin compared with control,"[4]; MCF7, 5 μM wartmannin (PI-3 kinase blocking agent)",no significant differences
same,Internalization with sodium azide,"[4]; MCF7, 40 µM sodium azide (oxidative phosphorylation inhibitor)",not blocked
same,Uptake with heparin,"[4]; MCF7, 50 μg/mL heparin (HSPG competitor)",could not block Dot1l uptake efficiently
same,Internalization with MβCD compared with control,"[4]; MCF7, 5 mM MβCD (lipid raft-mediated endocytosis inhibitor)",no significant differences
same,Internalization with ammonium chloride,"[4]; MCF7, 50 mM ammonium chloride (anti-acidification agent of endocytic vesicles)",not blocked
same,Internalization with hyperosmotic sucrose compared with control,"[4]; MCF7, 450 mM sucrose (clathrin-dependent endocytosis inhibitor)",no significant differences
same,Fluorescence intensity at 37 °C compared with 4 °C,"[4]; MCF7, means ± SEM (n = 3)",no apparent differences
same,Fluorescence intensity at 37 °C compared with 25 °C,"[4]; MCF7, means ± SEM (n = 3)",significantly higher
same,Internalization in the presence of serum containing incubation medium,"[4]; MCF7, serum (10% FBS)",blocked
same,Inhibition of cell growth (MTT),[5],no significant inhibition
same,Inhibition of cell growth (MTT),[6],no significant inhibition
same,Membrane disturbance (hemolysis),[7],no membrane disturbance
same,Membrane disturbance (LDH release),[8],no membrane disturbance
same,Membrane disturbance (LDH release),[9],no membrane disturbance
same,"Cell apoptosis, control vs peptide treatment",[10]; Annexin-V/PI,did not show significant differences
same,"Cell cycle, control vs peptide treatment",[10]; PI/RNase A staining,did not show significant differences
